Assays:
[1] = system: CFP-NNKLR-YFP-6xHis substrate (peptide E9)
[2] = system: CFP-LQRAI-YFP-6xHis substrate (peptide E8)
[3] = system: CFP-QRLRD-YFP-6xHis substrate (peptide F11)
[4] = system: CFP-RGKTN-YFP-6xHis substrate (peptide D9)
[5] = system: CFP-VGSLR-YFP-6xHis substrate (peptide G1)
[6] = system: CFP-NQRSS-YFP-6xHis substrate (peptide E5)
[7] = system: CFP-LSGGR-YFP-6xHis substrate (peptide E2)
[8] = system: CFP-RQTND-YFP-6xHis substrate (peptide C11)
[9] = system: CFP-LSRDN-YFP-6xHis substrate (peptide E7)
[10] = system: CFP-YQSLN-YFP-6xHis substrate (peptide F10)
[11] = system: T1, CFP-PDRHM-YFP-6xHis substrate (peptide F3)
T1 sequence: GALGGPDRHMGST

[12] = system: T2, CFP-AYGYK-YFP-6xHis substrate (peptide E1)
T2 sequence: GALGGAYGYKGST

Sequence of human plasma kallikrein (PK) (chain, as listed by the source): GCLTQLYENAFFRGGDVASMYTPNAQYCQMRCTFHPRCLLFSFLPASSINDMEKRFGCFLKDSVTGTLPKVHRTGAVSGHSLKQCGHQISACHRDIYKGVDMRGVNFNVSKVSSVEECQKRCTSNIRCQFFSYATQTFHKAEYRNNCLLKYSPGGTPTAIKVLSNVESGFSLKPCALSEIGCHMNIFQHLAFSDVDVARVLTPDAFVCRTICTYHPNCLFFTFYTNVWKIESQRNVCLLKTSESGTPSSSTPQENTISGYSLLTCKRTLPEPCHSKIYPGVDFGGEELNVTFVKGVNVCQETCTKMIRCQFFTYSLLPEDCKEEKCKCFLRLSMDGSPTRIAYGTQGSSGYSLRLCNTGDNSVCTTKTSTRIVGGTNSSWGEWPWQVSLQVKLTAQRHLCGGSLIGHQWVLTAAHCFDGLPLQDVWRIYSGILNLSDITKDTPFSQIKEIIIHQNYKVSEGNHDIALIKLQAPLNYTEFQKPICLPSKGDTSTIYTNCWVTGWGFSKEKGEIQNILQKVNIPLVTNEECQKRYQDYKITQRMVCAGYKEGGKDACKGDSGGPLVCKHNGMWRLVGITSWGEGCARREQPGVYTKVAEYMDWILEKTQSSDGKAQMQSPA

Substance | Kcat/Km [1] [M⁻¹ s⁻¹] | Kcat/Km [2] [M⁻¹ s⁻¹] | Kcat/Km [3] | Kcat/Km [4] [M⁻¹ s⁻¹] | Kcat/Km [5] [M⁻¹ s⁻¹] | Kcat/Km [6] [M⁻¹ s⁻¹] | Kcat/Km [7] [M⁻¹ s⁻¹] | Kcat/Km [8] [M⁻¹ s⁻¹] | Kcat/Km [9] [M⁻¹ s⁻¹] | Kcat/Km [10] | Kcat/Km [11] [M⁻¹ s⁻¹] | Kcat/Km [12] [M⁻¹ s⁻¹]
human kallikrein 2 (hK2) | 12000 | 25000 | 32000 M⁻¹ s⁻¹ | 21000 | 21000 | 14000 | 14000 | 23000 | 16000 | – | – | –
human kallikrein hK1 | – | – | L.C. | – | – | – | – | – | – | – | – | –
human plasma kallikrein (PK) | – | 5000 | – | – | – | 5000 | – | – | – | – | – | –
prostate specific antigen (PSA, hK3) | – | – | – | – | – | – | – | – | – | L.C. | – | –
trypsin | 384000 | 2.27e+06 | 1.42e+06 M⁻¹ s⁻¹ | 2.11e+06 | 270000 | 2.07e+06 | 4.68e+06 | 260000 | 246000 | – | 319000 | 129000

— US20140341881
